Reference: paper PMC10350833

Legend:
GFP-p62^S349A (human) = GFP-p62^S349A (human) (UniProt Q13501)
GFP-p62^S349E (human) = GFP-p62^S349E (human) (UniProt Q13501)

FLIP: signal intensity of mCherry-KEAP1 in GFP-p62 bodies of the non-bleached area, percent of the baseline value at 30 min after photobleaching (efflux of KEAP1) (GFP-p62^S349A (human)): 58.2%
FLIP: signal intensity of mCherry-KEAP1 in GFP-p62 bodies of the non-bleached area, percent of the baseline value at 30 min after photobleaching (efflux of KEAP1) (GFP-p62^S349E (human)): 72%
Substance: mCherry-tagged KEAP1 (from UniProt Q14145 1-624) (natural protein)
